As usually defined, the Kd is the equilibrium constant for the complex coming apart. For orientation: koff means a measure of how fast the partners let go of each other. Lower therefore signals slow dissociation. As a reminder, the kon is the rate constant with which the complex forms. For orientation: EC50 (read off the curve) means the concentration needed to bring the measured effect to its halfway point. High values mean a need for much substance, low ones an effect from little substance.

Assay [1] has as its target T1, hRYKWD.Fc (human, UniProt P34925 66-194, limits assumed).
T1 construct: domain: WIF domain; also called hRYKWD.Fc.FLAG; fusion protein containing the human RYK WIF domain; not shown: Fc region of human IgG1
As to the kind of experiment: SPRi (ProteOn XPR36, GLC chip), RWD1 immobilized, hRYKWD.Fc injected at 31.25-500 nM, 25 °C; calculated from ka and kd. Here is the method:
(§1) RYK binding was determined by ELISA as described previously (Davydova N, et al., 2011, J Mol Biol 407: 581-593), using bound RWD1 and probed with purified hRYK.Fc. All SPRi analyses were performed at 25° C. using HBST (10 mM HEPES, pH 7.4, 150 mM NaCl, 0.05% (v/v) Tween-20) as the running buffer. A ProteOn XPR36 SPRi biosensor, GLC sensor chips and coupling reagents (10 mM sodium acetate, pH 4.5; sulfo-N-hydroxysuccinimide (SNHS); 1-ethyl-3-(3-dimethylaminopropyl)-carbodiimide hydrochloride (EDC); and ethanolamine) were purchased from Bio-Rad Laboratories. All antibodies and ligands used for kinetic analysis were buffer exchanged with PBS. Immobilizations were performed at 30 μl/min on the GLC chip. Prior to immobilization, chips were preconditioned with two sequential 10 sec pulses of 50 mM NaOH, 100 mM HCl and 0.5% SDS, followed by equilibration with HBST. For surface activation, 0.4 M EDC and 0.1 M SNHS were each diluted 50-fold in water and mixed together to give a final composition of 8 mM EDC in 2 mM SNHS. Separate vertical channels were activated with 150 μl of the EDC/SNHS mixture. IgGs for immobilization (RWD1 antibody and normal human IgG (R&D Systems; control)) were diluted to 50 μg/ml in 10 mM acetate, pH 4.5, and coupled (3×150 μl) along separate vertical channels followed by an injection of ethanolamine (150 μl) to block the reaction spots. […]

For assay [2], the target named is T1, hRYKWD.Fc. As to the kind of experiment: SPRi (ProteOn XPR36, GLC chip), RWD1 immobilized, hRYKWD.Fc injected at 31.25-500 nM, 25 °C, global 1:1 Langmuir fit with mass transfer. Here is the method: as §1
In the next assay the target is T2, hRYK.Fc (human, UniProt P34925 26-227).
T2 construct: extracellular domain; also called hRYK.Fc.FLAG; FLAG-tagged hRYK.Fc; not shown: Fc
T2 sequence (P34925 26-227): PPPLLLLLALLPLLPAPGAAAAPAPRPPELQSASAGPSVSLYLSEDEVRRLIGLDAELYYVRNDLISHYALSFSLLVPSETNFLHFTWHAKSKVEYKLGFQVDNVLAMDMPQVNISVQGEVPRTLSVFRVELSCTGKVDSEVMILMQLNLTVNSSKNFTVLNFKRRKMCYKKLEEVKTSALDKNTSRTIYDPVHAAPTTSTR
Nature of the assay: ELISA: immobilized RWD1 probed with hRYK.Fc; the concentration on the axis is that of the RWD1 used for immobilization, the hRYK.Fc concentration of this graph is not given. Here is the method:
Purified RWD1 antibody (20 μg) was used in immunoprecipitation experiments, to determine its ability to inhibit hRYK.Fc binding to Wnt3a.Myc5 or Wnt5a.Myc5 (10 μg and 20 μg, respectively; of transfected HEK293T cell lysate). Immunoprecipitations (IP) were performed to pull down hRYK.Fc (250 ng), then immunoblotted (IB) with an anti-Myc tag antibody to detect Wnt binding. Molecular mass standards are shown at the left in kDa. IgG, normal human IgG. (B) ELISA results of immobilized RWD1 antibody probed with hRYK.Fc protein. […] Results represent the mean±standard deviation of two to three independent experiments. IgG, normal human IgG; OD, optical density.
RYK binding was determined by ELISA as described previously (Davydova N, et al., 2011, J Mol Biol 407: 581-593), using bound RWD1 and probed with purified hRYK.Fc. All SPRi analyses were performed at 25° C. using HBST (10 mM HEPES, pH 7.4, 150 mM NaCl, 0.05% (v/v) Tween-20) as the running buffer. A ProteOn XPR36 SPRi biosensor, GLC sensor chips and coupling reagents (10 mM sodium acetate, pH 4.5; sulfo-N-hydroxysuccinimide (SNHS); 1-ethyl-3-(3-dimethylaminopropyl)-carbodiimide hydrochloride (EDC); and ethanolamine) were purchased from Bio-Rad Laboratories. All antibodies and ligands used for kinetic analysis were buffer exchanged with PBS. Immobilizations were performed at 30 μl/min on the GLC chip. […]

T1 sequence (P34925 66-194 limits assumed): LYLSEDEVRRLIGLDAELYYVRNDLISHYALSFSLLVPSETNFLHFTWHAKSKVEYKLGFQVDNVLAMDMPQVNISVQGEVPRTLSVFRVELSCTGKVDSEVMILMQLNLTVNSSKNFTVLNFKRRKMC

B1: RWD1 (antibody, human IgG1, kappa, V domains shown)
VH: EVQLLESGGGLVQPGGSLRLSCAASGFTFSSYAMSWVRQAPGKGLEWVSLIHKAGHTTQYADSVKGRFTISRDNSKNTLYLQMNSLRAEDTAVYYCAKGYRHFDYWGQGTLVTVSS
VL: DIQMTQSPSSLSASVGDRVAITCRASQSISSYLNWYQQKPGKAPKLLIYRASNLQSGVPSRFSGSGSGTDFTLTISSLQPEDFATYYCQQAVGSPRTFGQGTKVEIKR
notes: Variable regions of scFv3 grafted onto a human IgG1 gamma heavy chain and human kappa light chain; fully human monoclonal antibody; also called RWD1 antibody
As to B1, the Kd with hRYKWD.Fc [1] was 4.2 nM. In the assay with hRYKWD.Fc [2], this molecule had a koff of 0.00037 s⁻¹ and a kon of 88000 M⁻¹ s⁻¹. Moreover, the “EC50 (read off the curve)” value in the assay with hRYK.Fc is approximately 5 µg/mL.

These data come from patent US20160053022A1 (PETER MACCALLUM CANCER INSTITUTE, published 2016).
